Tests used:
DRH-3 full length [1] = molecular target: T1, DRH-3 full length (Caenorhabditis elegans, UniProt Q93413 1-1119); test: size-exclusion chromatography
T1 sequence: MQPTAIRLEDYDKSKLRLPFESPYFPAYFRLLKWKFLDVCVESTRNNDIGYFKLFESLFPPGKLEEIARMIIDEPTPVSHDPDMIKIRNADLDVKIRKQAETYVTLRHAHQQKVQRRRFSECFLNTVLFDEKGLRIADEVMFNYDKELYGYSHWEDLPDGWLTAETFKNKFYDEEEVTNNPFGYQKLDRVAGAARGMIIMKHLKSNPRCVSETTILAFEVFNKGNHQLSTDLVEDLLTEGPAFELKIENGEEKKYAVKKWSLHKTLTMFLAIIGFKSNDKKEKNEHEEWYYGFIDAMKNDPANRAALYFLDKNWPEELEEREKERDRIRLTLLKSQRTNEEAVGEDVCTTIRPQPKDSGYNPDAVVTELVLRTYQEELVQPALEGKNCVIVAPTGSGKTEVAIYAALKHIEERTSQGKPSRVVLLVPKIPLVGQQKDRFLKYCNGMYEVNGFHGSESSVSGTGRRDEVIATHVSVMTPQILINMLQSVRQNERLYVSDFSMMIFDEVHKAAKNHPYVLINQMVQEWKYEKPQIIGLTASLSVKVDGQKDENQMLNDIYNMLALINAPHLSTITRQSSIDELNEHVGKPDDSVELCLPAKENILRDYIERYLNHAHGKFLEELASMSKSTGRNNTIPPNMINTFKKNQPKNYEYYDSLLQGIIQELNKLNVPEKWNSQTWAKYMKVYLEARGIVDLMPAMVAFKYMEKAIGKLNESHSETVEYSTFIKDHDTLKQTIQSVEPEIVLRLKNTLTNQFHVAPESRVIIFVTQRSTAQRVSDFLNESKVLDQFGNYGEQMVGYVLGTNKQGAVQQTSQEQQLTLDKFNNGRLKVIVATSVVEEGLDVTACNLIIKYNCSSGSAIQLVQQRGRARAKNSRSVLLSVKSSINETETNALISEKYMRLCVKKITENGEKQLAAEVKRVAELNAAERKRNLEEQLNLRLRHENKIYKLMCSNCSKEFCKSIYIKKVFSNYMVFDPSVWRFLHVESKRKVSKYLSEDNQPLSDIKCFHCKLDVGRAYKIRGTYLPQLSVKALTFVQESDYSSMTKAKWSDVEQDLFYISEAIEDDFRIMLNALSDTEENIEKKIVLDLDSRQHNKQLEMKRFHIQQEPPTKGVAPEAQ

DRH-1 CTD = molecular target: T2, DRH-1 CTD (Caenorhabditis elegans, UniProt G5EDI8 877-1006); test: limited proteolysis
T2 sequence: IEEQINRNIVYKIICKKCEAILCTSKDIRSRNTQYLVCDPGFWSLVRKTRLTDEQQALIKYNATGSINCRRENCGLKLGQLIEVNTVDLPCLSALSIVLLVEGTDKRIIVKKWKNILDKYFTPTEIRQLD

RIG-I CTD = molecular target: T3, RIG-I CTD (human, UniProt O95786 802-925); test: limited proteolysis
T3 sequence: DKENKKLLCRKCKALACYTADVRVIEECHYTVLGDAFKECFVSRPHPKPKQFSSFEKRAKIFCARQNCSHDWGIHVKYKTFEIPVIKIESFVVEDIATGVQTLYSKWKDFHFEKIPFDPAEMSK

DRH-3 CTD = molecular target: T4, DRH-3 CTD (Caenorhabditis elegans, UniProt Q93413 940-1108); test: crystal structure
T4 sequence: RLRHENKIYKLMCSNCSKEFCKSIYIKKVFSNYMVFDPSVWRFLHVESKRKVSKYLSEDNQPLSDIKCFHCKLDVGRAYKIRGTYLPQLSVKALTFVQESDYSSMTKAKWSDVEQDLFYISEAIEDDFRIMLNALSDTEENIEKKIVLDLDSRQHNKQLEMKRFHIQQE

DRH-3 full length [2] = molecular target: T1, DRH-3 full length; test: HDX-MS
DRH-3 full length [3] = molecular target: T1, DRH-3 full length; test: size-exclusion chromatography; remark: listed apart in the source

B1: GC30 (30-bp dsRNA) (dsRNA)
RNA 1: GGCGCGCGCGCGCGCGCGCGCGCGCGCGCGCC
RNA 2: B1 RNA 1
modifications: 5'-triphosphate on both strands
B1: binds (DRH-3 full length [1]).

B2: R1 / 12-mer 5'-ppp dsRNA (dsRNA)
RNA 1: GGCGCGCGCGCC
RNA 2: GGCGCGCGCGCC
modifications: 5'-triphosphate on both strands
B2: binds (DRH-1 CTD); binds (RIG-I CTD); binds (DRH-3 CTD).

B3: 8-nt ssRNA (ssRNA)
RNA: GGCCGCCC
modifications: 5'-triphosphate
B3: binds (DRH-3 CTD).

B4: 3p10L (SLR10) (structured_RNA)
RNA: GGACGUACGUUUCGACGUACGUCC
modifications: 5'-triphosphate
B4: binds (DRH-3 full length [2]).

B5: Hairpin 30 (structured_RNA)
RNA: GGACGUACGUACGUGCACGUACGUACGUGCUUCGGCACGUACGUACGUGCACGUACGUACGUCC
modifications: 5'-triphosphate
B5: binds (DRH-3 full length [3]).
